Assay results as given in patent publication US20240261333A1, “NOVEL TARGETS FOR ENHANCING ANTI-TUMOR IMMUNITY” (THE BROAD INSTITUTE, INC., priority 2021, published 2024).
Values belong to the molecule of their own block, whether it stands above or below them.

Target: T1, B3GNT2 (Homo sapiens, UniProt Q9NY97)
T1 construct: The respective ORFs of candidate genes [CD274 (NM_014143), MCL1 (NM_021960), JUNB (NM_002229), and B3GNT2 (NM_006577)] were synthesized; expressed in transfected cells; host or cells: A375 melanoma cells (lentiviral ORF overexpression)
T1 sequence (Q9NY97 1-397): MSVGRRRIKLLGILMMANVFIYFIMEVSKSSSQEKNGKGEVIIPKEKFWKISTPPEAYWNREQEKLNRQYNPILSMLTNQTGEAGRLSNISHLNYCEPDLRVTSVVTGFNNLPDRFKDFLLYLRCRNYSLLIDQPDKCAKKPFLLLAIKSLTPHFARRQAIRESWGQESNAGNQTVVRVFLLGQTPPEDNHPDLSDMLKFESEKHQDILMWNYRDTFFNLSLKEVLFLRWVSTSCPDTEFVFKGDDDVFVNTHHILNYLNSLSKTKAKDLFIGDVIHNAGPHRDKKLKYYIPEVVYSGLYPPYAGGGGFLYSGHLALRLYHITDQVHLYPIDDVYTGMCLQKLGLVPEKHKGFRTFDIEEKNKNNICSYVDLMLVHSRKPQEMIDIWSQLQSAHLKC
Test: Co-IP of FLAG-tagged B3GNT2 followed by mass spectrometry
Format: cell-based
Parameters: C-term IgG / C-term flag: unit not given here
How it was run: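 Co-purifying proteins were identified by fractionated nano-LC–MS/MS on an Orbitrap Elite, run data-dependent. Beforehand, lysates in 1% Triton X-100/HEPES buffer were incubated overnight at 4° C with anti-FLAG or […] and pulled down on Protein A/G magnetic beads for 4 h. Duplicate biological replicates.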

[1] = Co-IP followed by mass spectrometry of B3GNT2, C-term tag, FLAG pull-down
[2] = Co-IP followed by mass spectrometry of B3GNT2, C-term tag, IgG pull-down
[3] = Co-IP followed by mass spectrometry of B3GNT2, N-term tag, FLAG pull-down
[4] = Co-IP followed by mass spectrometry of B3GNT2, N-term tag, IgG pull-down

C-term flag [1]: 5 | C-term IgG [2]: 0 | N-term FLAG [3]: 0 | N-term IgG [4]: 0
B1: GEMIN4 (protein)
chain: MDLGPLNICEEMTILHGGFLLAEQLFHPKALAELTKSDWERVGRPIVEALREISSAAAHSQPFAWKKKALIIIWAKVLQPHPVTPSDTETRWQEDLFFSVGNMIPTINHTILFELLKSLEASGLFIQLLMALPTTICHAELERFLEHVTVDTSAEDVAFFLDVWWEVMKHKGHPQDPLLSQFSAMAHKYLPALDEFPHPPKRLRSDPDACPTMPLLAMLLRGLTQIQSRILGPGRKCCALANLADMLTVFALTEDDPQEVSATVYLDKLATVISVWNSDTQNPYHQQALAEKVKEAERDVSLTSLAKLPSETIFVGCEFLHHLLREWGEELQAVLRSSQGTSYDSYRLCDSLTSFSQNATLYLNRTSLSKEDRQVVSELAECVRDFLRKTSTVLKNRALEDITASIAMAVIQQKMDRHMEVCYIFASEKKWAFSDEWVACLGSNRALFRQPDLVLRLLETVIDVSTADRAIPESQIRQVIHLILECYADLSLPGKNKVLAGILRSWGRKGLSEKLLAYVEGFQEDLNTTFNQLTQSASEQGLAKAVASVARLVIVHPEVTVKKMCSLAVVNLGTHKFLAQILTAFPALRFVEEQGPNSSATFMVSCLKETVWMKFSTPKEEKQFLELLNCLMSPVKPQGIPVAALLEPDEVLKEFVLPFLRLDVEEVDLSLRIFIQTLEANACREEYWLQTCSPFPLLFSLCQLLDRFSKYWQLPKEKRCLSLDRKDLAIHILELLCEIVSANAETFSPDVWIKSLSWLHRKLEQLDWTVGLRLKSFFEGHFKCEVPATLFEICKLSEDEWTSQAHPGYGAGTGLLAWMECCCVSSGISERMLSLLVVDVGNPEEVRLFSKGFLVALVQVMPWCSPQEWQRLHQLTRRLLEKQLLHVPYSLEYIQFVPLLNLKPFAQELQLSVLFLRTFQFLCSHSCRDWLPLEGWNHVVKLLCGSLTRLLDSVRAIQAAGPWVQGPEQDLTQEALFVYTQVFCHALHIMAMLHPEVCEPLYVLALETLTCYETLSKTNPSVSSLLQRAHEQRFLKSIAEGIGPEERRQTLLQKMSSF

C-term flag [1]: 15 | C-term IgG [2]: 11 | N-term FLAG [3]: 16 | N-term IgG [4]: 10
B2: CHCHD3 (protein)
chain: GGTTSTRRVTFEADENENITVVKGIRLSENVIDRMKESSPSGSKSQRYSGAYGASVSDEELKRRVAEELALEQAKKESEDQKRLKQAKELDRERAAANEQLTRAILRERICSEEERAKAKHLARQLEEKDRVLKKQDAFYKEQLARLEERSSEFYRVTTEQYQKAAEEVEAKFKRYESHPVCADLQAKILQCYRENTHQTLKCSALATQYMHCVNHAKQSMLEKGG

C-term flag (Co-IP with FLAG antibody, C-terminally FLAG-tagged B3GNT2, mass spectrometry count, unit not given): 24 | N-term FLAG (Co-IP with FLAG antibody, N-terminally FLAG-tagged B3GNT2, mass spectrometry count, unit not given): 14 | C-term IgG (Co-IP with IgG control antibody, C-terminally FLAG-tagged B3GNT2, mass spectrometry count, unit not given): 0 | N-term IgG (Co-IP with IgG control antibody, N-terminally FLAG-tagged B3GNT2, mass spectrometry count, unit not given): 0
B3: PDIA3 (protein)
chain: SDVLELTDDNFESRISDTGSAGLMLVEFFAPWCGHCKRLAPEYEAAATRLKGIVPLAKVDCTANTNTCNKYGVSGYPTLKIFRDGEEAGAYDGPRTADGIVSHLKKQAGPASVPLRTEEEFKKFISDKDASIVGFFDDSFSEAHSEFLKAASNLRDNYRFAHTNVESLVNEYDDNGEGIILFRPSHLTNKFEDKTVAYTEQKMTSGKIKKFIQENIFGICPHMTEDNKDLIQGKDLLIAYYDVDYEKNAKGSNYWRNRVMMVAKKFLDAGHKLNFAVASRKTFSHELSDFGLESTAGEIPVVAIRTAKGEKFVMQEEFSRDGKALERFLQDYFDGNLKRYLKSEPIPESNDGPVKVVVAENFDEIVNNENKDVLIEFYAPWCGHCKNLEPKYKELGEKLSKDPNIVIAKMDATANDVPSPYEVRGFPTIYFSPANKKLNPKKYEGGRELSDFISYLQREATNPPVIQEEKPKKKKKAQEDL
